Data set [1] deals with hemoglobin. To be noted: PK-PD model estimates from different populations and structural models; cited from earlier work. The source says: The estimates of red blood cell life span (67.5 days) obtained from this analysis are consistent with previously reported values in the literature (60 to 65 days in dialysis patients), [17].
Data set [2] can be described thus: Population pharmacokinetic model of peginesatide plasma concentrations (NONMEM). The data set is classed as in vivo, human. Conditions: for Subcutaneous bioavailability (F1): fraction. From the text:
(§1) These studies were: AFX01-02 (NCT00109291) [data on file], AFX01-03 (NCT00228449), AFX01-04 (NCT00228436) and AFX01-07 (NCT00434330) [data on file]). Data were also utilized from one Phase 3 study, AFX01-14 (NCT00597584) conducted in hemodialysis patients. All plasma concentration-time data obtained in Phase 2 (with frequent PK and PD sampling scheme) [7, 8, AFX01-2, AFX01-07] and Phase 3 studies, with sparse PK and frequent PD sampling schemes, were used for the development of the PK model.
The lower and upper limits of quantification for the assay were 25 and 600 ng/mL, respectively.
(§2) The concentration of hemoglobin was measured using a standard laboratory method in a Clinical Laboratory Improvement Amendments certified central laboratory. Baseline weight was used to calculate the dose (in mg/kg). The first order conditional estimation (FOCE) and first-order (FO) method as implemented in NONMEM were used for PK and PK-PD modeling. Model selection criteria included a statistically significant reduction of the objective function value (OFV) (α = 0.05) for nested models, Akaike information criteria for non-nested models, reductions in both residual (σ^2) and inter-subject (ω^2) variability, improvement in the precision of parameter estimates as measured by the percent standard error of the mean (%SEM), and visual examination of standard goodness-of-fit plots.
Several different PK models were evaluated as base structural PK models. These included: 1-compartment and 2-compartment with first-order absorption and elimination; 1-compartment and 2-compartment with first-order absorption and Michaelis-Menton (MM) elimination; and a combination of zero- and first-order absorption with linear and MM elimination. Life-span, negative-feedback and precursor-dependent Lifespan Indirect Response (LIDR) models were evaluated as potential base PK-PD models.
In order to avoid possible multicollinearity issues, GAM analyses were performed for PK and PD parameters using different combinations of covariates that were deemed to be highly correlated (r>0.6) along with the remaining covariates. The potential covariates selected following GAM analysis were then tested using a standard approach of stepwise forward addition (P<0.05) followed by stepwise backward elimination procedure (P<0.005). […] The relationship between continuous covariates and PK and PD parameters were evaluated using linear, exponential and power functions as described in Equations 9, 10, and 11 with the covariates centered or scaled at their median values: [drawing 11] [drawing 12] [drawing 13]
The adequacy of the final PK and PK-PD models was evaluated using a simulation-based prediction-corrected (pc) visual predictive check (VPC) method (1000 replicates). Due to the dose adjustment algorithm used in these trials, the pcVPC was utilized. This technique provides an enhanced ability to diagnose possible model misspecification by removing the variability introduced in an ordinary VPC when binning across a potentially large variability in dose or other influential covariates. The percent of observations outside the 90% prediction interval were also calculated to evaluate predictive ability of the model. A non-parametric bootstrap procedure (1000 bootstrap runs) was also employed to evaluate the precision of the parameter estimates and the robustness of the final PK and PK-PD models.
Inter-individual variability (IIV) was estimated for volume of the central compartment (V2), the absorption rate constant (Ka) and the concentration required to reach 50% of maximum rate of elimination (KM) using exponential models, assuming a log-normal distribution for each parameter.

The test system of data set [3] is hemoglobin. Nature of the data set: Population PK-PD model (modified precursor-dependent lifespan indirect response) of hemoglobin levels. Format: in vivo, human. To be noted: final PK-PD model.
Text: as §1
as §2, with “plots. […]” for “plots.”
In the study, baseline erythropoietin levels were not measured in all patients. […]
A generalized additive modeling (GAM) approach along with graphical analysis (plots of the inter-subject error terms for each parameter [ηi] versus covariates) was used for initial covariate screening and to determine the functional form of the relationship between the covariates and PK and PD parameters of peginesatide. […] The relationship between continuous covariates and PK and PD parameters were evaluated using linear, exponential and power functions as described in Equations 9, 10, and 11 with the covariates centered or scaled at their median values: [drawing 11] […]
The adequacy of the final PK and PK-PD models was evaluated using a simulation-based prediction-corrected (pc) visual predictive check (VPC) method (1000 replicates). […]

The conditions of data set [4]: dialysis patients, cited from earlier work.
For data set [5] the following is noted: cited from earlier work.
The mark [6] stands for this setting: final population PK model, 672 CKD patients on/not on dialysis, IV or SC, final estimate (% SEM).
Where [7] appears, read: final population PK model, SC, final estimate (% SEM).
[8] abbreviates: final population PK model, median bootstrap estimate, 870/1000 converged runs.
Setting [9] is: median bootstrap estimate, 935/1000 converged runs.

Consider darbepoetin alfa, for which, in the data set with hemoglobin [1], the concentration for a half-maximal effect (EC50) (usually the midpoint of the concentration-response curve) was 0.41 ng/mL and the Emax was 0.637.
On to “methoxy polyethylene glycol-epoetin beta [Micera]”, for which, in the data set with hemoglobin [1], the EC50 was 0.898 ng/mL and the Emax is recorded as 0.425.
As to peginesatide, the “effect of concomitant medications on PK or PD parameters” value in data set [2] (concomitant medications taken by >10% of the patient population during 80% of the trial period) is “did not alter”. For the same substance, the “total volume of distribution” value in data set [2] (estimated population value, IV and SC administration) was 0.043 L/kg. For the same substance, in data set [2] (setting [6]), the “Central volume of distribution (V2)” value was 35.6 (2.7) mL/kg, the “Concentration needed to reach 50% of Vmax (KM)” value was 1880 (14.6) ng/mL and the “Maximum rate of elimination (Vmax)” value is 45.3 (10.0) ng/mL/hr. In addition, in data set [2] (setting [7]), the “Absorption rate constant (Ka)” value was 0.00865 (15.6) 1/hr and the “Subcutaneous bioavailability (F1)” value is recorded as 0.498 (4.4). Further, the “Peripheral volume of distribution (V3)” value in data set [2] (final population PK model, final estimate (% SEM)) is recorded as 7.44 (10.3) mL/kg. In addition, in data set [2] (setting [8]), the “Subcutaneous bioavailability (F1)” value is reported as 0.499, the “Absorption rate constant (Ka)” value is 0.00869 h⁻¹, the “Age slope for V2” value is reported as “–0.125 L/yr” and the “BMI power for V2” value was “–0.485”. Also, in data set [2] (setting [8]), the “Central volume of distribution (V2)” value is 35.6 mL/kg, the “Concentration needed to reach 50% of Vmax (KM)” value was 1860 ng/mL, the “ETHN shift for Ka” value was 0.00815 (1/hr) and the “Maximum rate of elimination (Vmax)” value was 44.7 ng/mL/h. In data set [2] (setting [8]), the “Peripheral volume of distribution (V3)” value was 7.42 mL/kg and the “TBILI slope for V2” value was 0.482 L/(g/L). Moreover, in data set [2] (model estimated, final population PK model), the “bioavailability after SC administration” value is on record as “approximately 50%”. Also, the linearity of pharmacokinetics result in data set [2] (population PK model, over the evaluated dose range) is reported as “non-linear pharmacokinetics”. The “Drug concentration required for 50% of maximum response (EC50)” value in the data set on hemoglobin [3] (517 hemodialysis patients, IV or SC, plasma concentration, final estimate (% SEM)) is 401 (2.0) ng/mL. For the same substance, in the data set with hemoglobin [3] (setting [9]), the “Drug concentration required for 50% of maximum response (EC50)” value is given as 417 ng/mL and the “Maximum pharmacologic effect (Emax)” value is 0.564. The “mean volume of distribution” value in data set [4] (IV administration, mean ± standard deviation) was 0.0349 ± 0.0138 L/kg. In addition, the accumulation entry in data set [4] (IV or SC administration every 4 weeks) is recorded as “No accumulation”. In data set [4] (SC administration), the bioavailability result is “approximately 46%” and the “time at which Cmax is reached” value is on record as “approximately 48 hours”. The volume of distribution in data set [5] (healthy volunteers) was 0.035 L/kg. For the same substance, the “half-life (T1/2)” value in data set [5] (human, in vivo, sc) is 53.0 ± 17.7 h.

The values are drawn from article PMC3686692 (PLoS ONE, 2013).
